Measurements from paper PMC7102971 (Nucleic Acids Research, 2020).

Target: the molecule itself
Test: crystal structure

B1: SFPQ-276-535 (dimerization domain of human SFPQ) (domain or fragment)
chain: EGFKANLSLLRRPGEKTYTQRCRLFVGNLPADITEDEFKRLFAKYGEPGEVFINKGKGFGFIKLESRALAEIAKAELDDTPMRGRQLRVRFATHAAALSVRNLSPYVSNELLEEAFSQFGPIERAVVIVDDRGRSTGKGIVEFASKPAARKAFERCSEGVFLLTTTPRPVIVEPLEQLDDEDGLPEKLAQKNPMYQKERETPPRFAQHGTFEYEYSQRWKSLDEMEKQQREQVEKNMKDAKDKLESEMEDAYHEHQANLL
binding result: binds
